Measured values as given in patent CN114790241A.

Key:
[1] = biological target: 食蟹猴TIGIT (Cyno-TIGIT) on 293T-Cyno-TIGIT cells (cynomolgus monkey (Macaca fascicularis)); test: flow cytometry on 293T-Cyno-TIGIT cells, secondary antibody alone (background control)
[2] = biological target: T1, 人TIGIT (hTIGIT) on 293T-hTIGIT cells (human) (UniProt Q495A1); test: flow cytometry on 293T-hTIGIT cells, secondary antibody alone (background control)
T1 sequence: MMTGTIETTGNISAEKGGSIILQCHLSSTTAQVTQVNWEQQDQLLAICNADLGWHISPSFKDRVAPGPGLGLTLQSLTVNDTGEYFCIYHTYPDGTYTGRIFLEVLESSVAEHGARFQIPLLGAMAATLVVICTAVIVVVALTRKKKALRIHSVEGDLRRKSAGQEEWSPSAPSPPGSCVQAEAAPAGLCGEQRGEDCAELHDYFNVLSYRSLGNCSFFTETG

[3] = biological target: T2, TIGIT-hFc蛋白(人TIGIT胞外区与人IgG1 Fc的融合蛋白) (human) (UniProt Q495A1); test: flow cytometry, blocking of TIGIT-hFc binding to 293T-hPVR cells, hybridoma supernatant
T2 sequence: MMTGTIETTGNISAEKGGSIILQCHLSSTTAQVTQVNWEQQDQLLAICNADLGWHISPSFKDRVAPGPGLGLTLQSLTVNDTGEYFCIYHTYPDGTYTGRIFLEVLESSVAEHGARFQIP

[4] = biological target: T2, TIGIT-hFc蛋白(人TIGIT胞外区与人IgG1 Fc的融合蛋白) (human); test: flow cytometry, signal on 293T-hPVR cells with 500 ng TIGIT-hFc and 50 uL hybridoma supernatant
[5] = biological target: 食蟹猴TIGIT (Cyno-TIGIT) on 293T-Cyno-TIGIT cells (cynomolgus monkey (Macaca fascicularis)); test: flow cytometry on 293T-Cyno-TIGIT cells, 50 uL hybridoma supernatant, APC anti-mouse IgG Fc
[6] = biological target: T1, 人TIGIT (hTIGIT) on 293T-hTIGIT cells (human); test: flow cytometry on 293T-hTIGIT cells, 0.5 ug antibody, APC anti-human IgG Fc
[7] = biological target: T1, 人TIGIT (hTIGIT) on 293T-hTIGIT cells (human); test: flow cytometry on 293T-hTIGIT cells, 1.7 ug antibody, APC anti-human IgG Fc
[8] = biological target: T1, 人TIGIT (hTIGIT) on 293T-hTIGIT cells (human); test: flow cytometry on 293T-hTIGIT cells, 1.0 ug antibody, APC anti-human IgG Fc

Sequence of 食蟹猴TIGIT (Cyno-TIGIT) on 293T-Cyno-TIGIT cells (cynomolgus monkey (Macaca fascicularis)) (chain, as listed by the source limits assumed): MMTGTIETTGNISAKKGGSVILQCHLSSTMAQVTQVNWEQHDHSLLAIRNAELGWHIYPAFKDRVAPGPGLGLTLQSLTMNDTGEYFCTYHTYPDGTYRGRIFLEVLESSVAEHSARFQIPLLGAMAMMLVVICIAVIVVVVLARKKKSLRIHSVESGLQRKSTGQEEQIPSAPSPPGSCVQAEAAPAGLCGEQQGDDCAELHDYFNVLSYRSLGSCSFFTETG

How did the Geom.Mean [1] turn out when “APC羊抗小鼠IgG Fc二抗(Biolegend, Cat405308) (antibody)” was run?
The Geom.Mean was 1920.

For “APC抗人IgG Fc二抗(Biolegend, Cat409306) (antibody)”, which Geom.Mean [2] is on record?
Its Geom.Mean is 405.

B1: 鼠源抗TIGIT抗体(杂交瘤18A12分泌的抗体) (antibody, V domains shown)
VH: QVQLLESGGGLVQPGGSMKLSCVVSGFTFSNYWMNWVRQSPEKGLEWVAEIRLKSNNYATHYAESVKGRFAISRDDSKSSVYLQMNNLRAEDTGVYYCTRLYYGNYFDYWGQGTTLTVSS
VL: DIQMTQSPASLSASVGETVTITCRASENTYSYLAWYQQKQGKSPQLLVYNAKTLAEGVPSRFSGSGSGTQFSLKITSLQPEDFGSYYCQHHYAFSYTFGGGTKLEMK
Which 阻断率% [3] does the source give for B1 here?
Its 阻断率% is 80.9%.

What about the Geom.Mean [4] of the same molecule?
Its Geom.Mean is 2760.

And the Geom.Mean [5]?
The Geom.Mean was 20000.

B2: 抗TIGIT嵌合抗体(IgG1亚型) (antibody, V domains shown)
VH: QVQLLESGGGLVQPGGSMKLSCVVSGFTFSNYWMNWVRQSPEKGLEWVAEIRLKSNNYATHYAESVKGRFAISRDDSKSSVYLQMNNLRAEDTGVYYCTRLYYGNYFDYWGQGTTLTVSS
VL: DIQMTQSPASLSASVGETVTITCRASENTYSYLAWYQQKQGKSPQLLVYNAKTLAEGVPSRFSGSGSGTQFSLKITSLQPEDFGSYYCQHHYAFSYTFGGGTKLEMKR
What does the source list for B2?
Geom.Mean [6]: 8790; Geom.Mean [7]: 12200; Geom.Mean [8]: 10300
